T1: IDN2-a (XS+coiled-coil) (Arabidopsis thaliana, UniProt Q8VZ79 1-511)
T1 sequence: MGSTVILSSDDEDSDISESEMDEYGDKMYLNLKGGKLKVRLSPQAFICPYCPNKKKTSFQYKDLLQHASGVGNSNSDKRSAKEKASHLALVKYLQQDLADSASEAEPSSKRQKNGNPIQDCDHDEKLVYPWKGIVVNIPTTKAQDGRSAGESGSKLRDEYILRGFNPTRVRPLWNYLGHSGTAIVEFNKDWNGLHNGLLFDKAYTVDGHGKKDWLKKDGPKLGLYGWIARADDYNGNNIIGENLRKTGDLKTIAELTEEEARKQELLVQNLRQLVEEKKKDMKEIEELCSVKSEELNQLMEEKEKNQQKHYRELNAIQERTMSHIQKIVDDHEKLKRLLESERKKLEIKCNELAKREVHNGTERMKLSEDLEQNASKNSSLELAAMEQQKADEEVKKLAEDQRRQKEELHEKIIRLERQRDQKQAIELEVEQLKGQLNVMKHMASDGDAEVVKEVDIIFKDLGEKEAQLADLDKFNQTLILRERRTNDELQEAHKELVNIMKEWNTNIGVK

T2: IDN2 (Arabidopsis thaliana, UniProt Q8VZ79 1-647)
T2 sequence: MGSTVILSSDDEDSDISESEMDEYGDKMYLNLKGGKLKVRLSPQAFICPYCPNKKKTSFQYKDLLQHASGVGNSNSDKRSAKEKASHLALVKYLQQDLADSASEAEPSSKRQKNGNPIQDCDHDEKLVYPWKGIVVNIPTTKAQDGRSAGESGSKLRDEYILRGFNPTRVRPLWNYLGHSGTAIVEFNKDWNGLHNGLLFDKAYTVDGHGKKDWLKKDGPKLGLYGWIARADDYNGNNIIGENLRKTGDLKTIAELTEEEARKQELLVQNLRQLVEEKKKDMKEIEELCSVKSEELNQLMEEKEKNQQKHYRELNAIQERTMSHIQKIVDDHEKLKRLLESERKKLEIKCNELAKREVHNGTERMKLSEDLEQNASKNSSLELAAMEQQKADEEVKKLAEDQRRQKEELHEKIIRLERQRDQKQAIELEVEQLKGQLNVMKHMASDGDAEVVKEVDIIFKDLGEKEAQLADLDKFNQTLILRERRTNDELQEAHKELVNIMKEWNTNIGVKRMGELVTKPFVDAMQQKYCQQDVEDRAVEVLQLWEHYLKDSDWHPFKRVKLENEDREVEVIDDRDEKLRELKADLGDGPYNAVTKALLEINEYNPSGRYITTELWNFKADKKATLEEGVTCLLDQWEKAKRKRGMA

T3: IDP2 (Arabidopsis thaliana, UniProt F4JH53 1-635)
T3 sequence: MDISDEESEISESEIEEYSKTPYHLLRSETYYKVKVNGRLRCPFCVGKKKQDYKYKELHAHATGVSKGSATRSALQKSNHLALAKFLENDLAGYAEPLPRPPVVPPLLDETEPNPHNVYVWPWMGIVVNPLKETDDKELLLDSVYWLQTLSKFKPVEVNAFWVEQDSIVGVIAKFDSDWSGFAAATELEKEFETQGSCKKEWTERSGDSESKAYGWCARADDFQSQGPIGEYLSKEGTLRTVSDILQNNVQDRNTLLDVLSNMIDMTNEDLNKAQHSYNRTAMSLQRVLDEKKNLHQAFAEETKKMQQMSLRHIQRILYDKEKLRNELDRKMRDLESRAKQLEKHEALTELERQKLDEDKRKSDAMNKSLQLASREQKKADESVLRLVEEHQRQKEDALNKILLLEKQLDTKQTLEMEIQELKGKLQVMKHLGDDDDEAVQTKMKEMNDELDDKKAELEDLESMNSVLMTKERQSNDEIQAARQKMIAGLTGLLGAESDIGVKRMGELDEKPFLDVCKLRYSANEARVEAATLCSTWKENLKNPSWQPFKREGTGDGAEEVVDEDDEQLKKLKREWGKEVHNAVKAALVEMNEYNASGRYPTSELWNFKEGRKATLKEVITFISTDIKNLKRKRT

T4: IDP1 (Arabidopsis thaliana, UniProt Q9S9P3 1-634)
T4 sequence: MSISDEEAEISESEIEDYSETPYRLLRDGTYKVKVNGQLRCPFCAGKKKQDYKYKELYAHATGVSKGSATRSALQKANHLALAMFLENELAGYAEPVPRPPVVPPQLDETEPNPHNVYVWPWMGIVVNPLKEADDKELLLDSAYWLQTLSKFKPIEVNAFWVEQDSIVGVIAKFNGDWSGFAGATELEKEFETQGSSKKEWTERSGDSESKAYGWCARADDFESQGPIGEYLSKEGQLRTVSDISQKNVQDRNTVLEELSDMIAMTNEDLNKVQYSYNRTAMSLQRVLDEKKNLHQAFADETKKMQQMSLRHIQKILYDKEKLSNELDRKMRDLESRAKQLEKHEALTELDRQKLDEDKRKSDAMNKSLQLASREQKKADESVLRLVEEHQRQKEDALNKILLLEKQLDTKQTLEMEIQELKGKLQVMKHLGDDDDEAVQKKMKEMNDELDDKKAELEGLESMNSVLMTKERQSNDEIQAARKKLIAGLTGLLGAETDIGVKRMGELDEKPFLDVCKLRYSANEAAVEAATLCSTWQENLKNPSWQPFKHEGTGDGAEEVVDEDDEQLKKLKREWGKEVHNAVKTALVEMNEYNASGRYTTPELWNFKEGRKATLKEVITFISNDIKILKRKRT


Columns and labels:
IDN2-a (XS+coiled-coil) = molecular target: T1, IDN2-a (XS+coiled-coil); experiment: EMSA; 12.5 mM MgCl2; 25 mM HEPES pH 7.6, 50 mM KCl, 0.1 mM EDTA, 12.5 mM MgCl2, 1 mM DTT, 0.5% BSA, 5% glycerol, 2 ug protein, room temperature 30 min; 4% native PAGE; settings: protein: recombinant, tags: His (pET30a), label: 5'-32P
IDN2 = molecular target: T2, IDN2; experiment: as above; settings: protein: recombinant, tags: His (pET28a), label: 5'-32P
IDP2 = molecular target: T3, IDP2; experiment: EMSA; 12.5 mM MgCl2; up to 6.4 ug protein; 25 mM HEPES pH 7.6, 50 mM KCl, 0.1 mM EDTA, 12.5 mM MgCl2, 1 mM DTT, 0.5% BSA, 5% glycerol, 2 ug protein, room temperature 30 min; 4% native PAGE; settings: protein: recombinant, tags: His (pET28a), label: 5'-32P
IDP1 = molecular target: T4, IDP1; experiment: as above; settings: protein: recombinant, tags: His (pET28a), label: 5'-32P

Row | Binder | binding result (IDN2-a (XS+coiled-coil); 5' overhangs 2 nt at both ends) | binding result (IDN2; 5' overhangs 2 nt at both ends) | binding result (IDP2; 5' overhangs 2 nt at both ends) | binding result (IDP1; 5' overhangs 2 nt at both ends) | binding result (IDN2-a (XS+coiled-coil); blunt) | binding result (IDN2; blunt) | binding result (IDP2; blunt) | binding result (IDP1; blunt)
1 | RD29A dsRNA, 5' overhang (dsRNA) RNA 1: ACGCUUCAUACGUGUCCCUUUAUCUCUCUCAGUCU RNA 2: AGAGACUGAGAGAGAUAAAGGGACACGUAUGAAGC | binds | binds | no binding | no binding |  |  |  | 
2 | RD29A dsRNA, blunt (dsRNA) RNA 1: ACGCUUCAUACGUGUCCCUUUAUCUCUCUCAGUCU RNA 2: AGACUGAGAGAGAUAAAGGGACACGUAUGAAGCGU |  |  |  |  | binds | binds | no binding | no binding
